In patent publication US8933021B2, “Insulin derivative” (Novo Nordisk A/S, priority 2006, dated 2015):

Columns and labels:
[1] = Hydrophobicity (hydrophobic index k'rel) relative to human insulin by isocratic RP-HPLC; assay type: physicochemical
Method: The elution was monitored by following the UV absorption of the eluate at 214 nm. Void time, t0, was found by injecting 0.1 mM sodium nitrate.

human insulin receptor = human insulin receptor (Homo sapiens, UniProt P06213); experiment: Insulin receptor binding, SPA antibody capture assay
Chain of human insulin receptor (P06213 28-746 isoform P06213-2 limits assumed): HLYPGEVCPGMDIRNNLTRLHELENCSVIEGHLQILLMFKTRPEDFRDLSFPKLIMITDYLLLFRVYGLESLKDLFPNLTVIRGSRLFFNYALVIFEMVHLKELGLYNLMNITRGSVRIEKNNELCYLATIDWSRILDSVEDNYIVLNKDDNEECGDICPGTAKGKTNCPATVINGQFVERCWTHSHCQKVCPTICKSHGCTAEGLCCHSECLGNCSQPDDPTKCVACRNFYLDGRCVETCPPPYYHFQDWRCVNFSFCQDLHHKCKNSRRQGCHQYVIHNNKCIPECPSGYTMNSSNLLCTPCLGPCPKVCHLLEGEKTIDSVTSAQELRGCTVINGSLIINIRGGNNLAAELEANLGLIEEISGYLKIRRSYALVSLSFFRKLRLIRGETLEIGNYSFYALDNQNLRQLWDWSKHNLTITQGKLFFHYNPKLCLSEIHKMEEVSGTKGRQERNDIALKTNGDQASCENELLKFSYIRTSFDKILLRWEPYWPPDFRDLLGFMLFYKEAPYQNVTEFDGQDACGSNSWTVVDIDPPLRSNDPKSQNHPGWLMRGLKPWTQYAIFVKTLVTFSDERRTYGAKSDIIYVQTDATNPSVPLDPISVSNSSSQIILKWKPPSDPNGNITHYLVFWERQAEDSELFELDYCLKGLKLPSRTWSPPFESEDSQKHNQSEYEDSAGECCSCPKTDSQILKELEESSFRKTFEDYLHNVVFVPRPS
Chain of human insulin receptor (P06213 763-1382 partner limits assumed): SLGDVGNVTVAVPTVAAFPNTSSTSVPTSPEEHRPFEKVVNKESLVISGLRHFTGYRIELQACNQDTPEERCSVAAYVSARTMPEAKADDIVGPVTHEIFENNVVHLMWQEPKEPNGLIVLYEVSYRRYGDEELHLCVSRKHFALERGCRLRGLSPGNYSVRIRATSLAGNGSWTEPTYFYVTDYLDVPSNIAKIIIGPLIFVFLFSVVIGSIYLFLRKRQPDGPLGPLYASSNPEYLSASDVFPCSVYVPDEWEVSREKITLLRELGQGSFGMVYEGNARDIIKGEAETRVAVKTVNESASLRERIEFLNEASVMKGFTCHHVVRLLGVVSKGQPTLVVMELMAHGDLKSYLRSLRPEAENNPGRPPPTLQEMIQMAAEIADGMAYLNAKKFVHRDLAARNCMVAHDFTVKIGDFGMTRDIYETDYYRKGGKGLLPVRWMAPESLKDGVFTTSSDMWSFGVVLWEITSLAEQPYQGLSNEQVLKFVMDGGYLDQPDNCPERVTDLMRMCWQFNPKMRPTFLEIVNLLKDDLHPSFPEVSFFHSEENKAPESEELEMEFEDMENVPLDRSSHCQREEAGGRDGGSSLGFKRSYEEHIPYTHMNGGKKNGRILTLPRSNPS
Method: SPA-PVT antibody-binding beads, anti-mouse reagent (Amersham Biosciences, Cat No. PRNQ0017) were mixed with 25 ml of binding buffer (100 mM HEPES pH 7.8; 100 mM sodium chloride, 10 mM MgSO4, 0.025% Tween-20). […] A total of 100 μl was then added and a dilution series is made from appropriate samples. To the dilution series was then added 100 μl of reagent mix and the samples were incubated for 16 hours while gently shaken. The phases were the then separated by centrifugation for 1 min and the plates counted in a Topcounter. The binding data were fitted using the nonlinear regression algorithm in the GraphPad Prism 2.01 (GraphPad Software, San Diego, Calif.).

[2] = Self-association by size exclusion chromatography (SEC), Kav; assay type: physicochemical
Method: The ability of the insulin derivatives of the invention to self-associate into large, but soluble complexes is analysed using SEC (size exclusion chromatography):
The following equation is used to determine the Kav for the derivative: Kav=(t−t0)/(Vt/(f+td−t0)) Where t is the retention time for a given peak, t0 is the retention time for Blue dextran, Vt is the total column volume (here 2.4 ml), f is the flow (here 0.04 ml/min), and td is the retention time for Blue dextran without the column in the system.

[3] = LiChrosorb RP18, 40° C., pH 7.3, HI = 1
[4] = recombinant human insulin receptor-exon 11, SPA

Substance | Hydrophobicity relative to human insulin [1, 3] | Hydrophobicity relative to human insulin ([1]; class symbol, HI = 1) | Insulin receptor affinity relative to human insulin (human insulin receptor; class symbol) | Insulin receptor affinity relative to human insulin (human insulin receptor; [4]) [%] | Self-association: Kav ([2]; SEC Superose 6, 37° C., 0.6 mM derivative, 2.1 Zn2+/hexamer, 16 mM phenol, pH 7.8, one value per peak) | Self-association: % area of peak ([2]; area of the peak whose Kav is in the cell above) | Self-association: Kav ([2]; class symbol)
N^εB29-ω-carboxy-undecanoyl-δ-amino-butanoyl desB30 human insulin [Example 13] | 0.552 | +++ (k'rel < 1: +++) | +++ (>50%: +++) | 59 | 0.69 | (100%) | + (Kav ≧ 0.55: +)
N^εB29-(3-(3-{4-[3-(7-carboxyheptanoylamino)propoxy]butoxy}propylcarbamoyl)-propionyl-γ-glutamylamide) desB30 human Insulin [Example 11] | 0.435 | +++ (k'rel < 1: +++) | ++ (5-50%: ++) | 43 | – | – | –
N^εB29-ω-carboxy-pentadecanoyl-γ-L-aspartylamide desB30 human insulin [Example 6] | – | – | ++ (5-50%: ++) | 33 | – | – | –
